We go through three molecules from patent publication US20030126647A1 (published 2003).

First the molecules themselves.
B1: full-length FIS3 polypeptide (other)
chain: MSKITLGNESIVGSLTPSNKKSYKVTNRIQEGKKPLYAVVFNFLDARFFDVFVTAGGNRITLYNCLGDGAISALQSYADEDKEESFYTVSWACGVNGNPYVAAGGVKGIIRVIDVNSETIHKSLVGHGDSVNEIRTQPLKPQLVITASKDESVRLWNVETGICILIFAGAGGHRYEVLSVDFHPSDIYRFASCGMDTTIKIWSMKEFWTYVEKSFTWTDDPSKFPTKFVQFPVFTASIHTNYVDCNRWFGDFILSKSVDNEILLWEPQLKENSPGEGASDVLLRYPVPMCDIWFIKFSCDLHLSSVAIGNQEGKVYVWDLKSCPPVLITKLSHNQSKSVIRQTAMSVDGSTILACCEDGTIWRWDVITK
notes: The full-length FIS3 cDNA was cloned into pGBT9 and pGAD424; the vector-encoded fusion domain is not included; also called FIE
B2: full-length FIS1 polypeptide (other)
chain: MEKENHEDDGEGLPPELNQIKEQIEKERFLHIKRKFELRYIPSVATHASHHQSFDLNQPAAEDDNGGDNKSLLSRMQNPLRHFSASSDYNSYEDQGYVLDEDQDYALEEDVPLFLDEDVPLLPSVKLPIVEKLPRSITWVFTKSSQLMAESDSVIGKRQIYYLNGEALELSSEEDEEDEEEDEEEIKKEKCEFSEDVDRFIWTVGQDYGLDDLVVRRALAKYLEVDVSDILERYNELKLKNDGTAGEASDLTSKTITTAFQDFADRRHCRRCMIFDCHMHEKYEPESRSSEDKSSLFEDEDRQPCSEHCYLKVRSVTEADHVMDNDNSISNKIVVSDPNNTMWTPVEKDLYLKGIEIFGRNSCDVALNILRGLKTCLEIYNYMREQDQCTMSLDLNKTTQRHNQVTKKVSRKSSRSVRKKSRLRKYARYPPALKKTTSGEAKFYKHYTPCTCKSKCGQQCPCLTHENCCEKYCGCSKDCNNRFGGCNCAIGQCTNRQCPCFAANRECDPDLCRSCPLSCGDGTLGETPVQIQCKNMQFLLQTNKKILIGKSDVHGWGAFTWDSLKKNEYLGEYTGELITHDEANERGRIEDRIGSSYLFTLNDQLEIDARRKGNEFKFLNHSARPNCYAKLMIVRGDQRIGLFAERAIEEGEELFFDYCYGPEHADWSRGREPRKTGASKRSKEARPAR
notes: Expressed in yeast from the two-hybrid vectors pGBT9 and pGAD424, so it was a fusion with the vector-encoded domain; also called MEDEA/FIS1; MEA

Data set [1] has as its target T1, full-length FIS2 polypeptide (Arabidopsis thaliana, UniProt P0DKJ7 1-813, limits assumed).
T1 construct: The full-length FIS2 cDNA was cloned into pGBT9 and pGAD424; the vector-encoded fusion domain is not included
T1 sequence: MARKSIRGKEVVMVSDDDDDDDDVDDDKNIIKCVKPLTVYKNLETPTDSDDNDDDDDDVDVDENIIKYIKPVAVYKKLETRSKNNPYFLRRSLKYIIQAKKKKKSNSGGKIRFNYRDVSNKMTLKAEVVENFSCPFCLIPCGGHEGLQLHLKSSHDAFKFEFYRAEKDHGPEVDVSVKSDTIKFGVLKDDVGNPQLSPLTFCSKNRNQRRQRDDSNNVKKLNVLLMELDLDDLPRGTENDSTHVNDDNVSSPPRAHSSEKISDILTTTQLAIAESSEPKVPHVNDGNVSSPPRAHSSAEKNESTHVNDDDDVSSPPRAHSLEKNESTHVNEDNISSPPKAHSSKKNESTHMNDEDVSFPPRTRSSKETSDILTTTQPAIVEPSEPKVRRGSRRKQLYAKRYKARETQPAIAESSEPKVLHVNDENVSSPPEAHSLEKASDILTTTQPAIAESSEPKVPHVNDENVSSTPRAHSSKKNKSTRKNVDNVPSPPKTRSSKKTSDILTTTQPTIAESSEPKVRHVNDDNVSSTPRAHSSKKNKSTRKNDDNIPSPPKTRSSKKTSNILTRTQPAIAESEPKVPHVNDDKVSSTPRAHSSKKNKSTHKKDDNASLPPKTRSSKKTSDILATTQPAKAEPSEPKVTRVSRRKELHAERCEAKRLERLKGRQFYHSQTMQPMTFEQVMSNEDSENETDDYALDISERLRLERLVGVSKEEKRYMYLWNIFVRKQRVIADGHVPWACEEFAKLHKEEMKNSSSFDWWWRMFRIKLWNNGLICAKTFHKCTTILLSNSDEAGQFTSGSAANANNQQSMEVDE
Nature of the data set: yeast two-hybrid (pGBT9 / pGAD424, adenine selection and beta-galactosidase). The text has this:
(§1) In particular, the full-length FIS1 cDNA sequence, encoding a 689 amino acid polypeptide comprising the A, C5, N, CXC and SET domains, and the deletion mutants designated: ΔBgl, encoding a 513 amino acid polypeptide and lacking the C-terminal SET domain-encoding region; ΔBcl, encoding a 320 amino acid polypeptide and lacking the C-terminal N, CXC and SET domain-encoding regions; ΔPst, encoding a 62 amino acid polypeptide and lacking the C-terminal portion of FIS1 comprising the five domain-encoding regions; and Δ160, lacking 160 bp at the 5′-end of the FIS1 cDNA, were constructed (FIG. 27). The full-length FIS2 and FIS3 cDNAs were also used. Control constructs, employing the empty vectors pGBT9 and pGAD424, or alternatively the EzA1 cDNA, were also used. Each cDNA was cloned into each vector and yeast were transformed with vectors expressing different FIS polypeptides, in the presence of adenine selection and β-Galactosidase activation, to select for cells expressing from both constructs.

Data set [2] deals with B2. Nature of the data set: yeast two-hybrid.
Excerpt: as §1

The data set “yeast two-hybrid” deals with the molecule itself. As to the kind of experiment: yeast two-hybrid.
Excerpt: as §1

Data set [3] concerns the target B1. As to the kind of experiment: yeast two-hybrid.
Excerpt: as §1

In the case of B1, the binding result is “no binding” in data set [1] and “binds” in data set [2].

For the molecule B2, the binding result in “yeast two-hybrid” is listed as “binds”.

B3: FIS1 deletion mutant Bcl (320 amino acid polypeptide comprising the A and C5 regions only) (other)
chain: MEKENHEDDGEGLPPELNQIKEQIEKERFLHIKRKFELRYIPSVATHASHHQSFDLNQPAAEDDNGGDNKSLLSRMQNPLRHFSASSDYNSYEDQGYVLDEDQDYALEEDVPLFLDEDVPLLPSVKLPIVEKLPRSITWVFTKSSQLMAESDSVIGKRQIYYLNGEALELSSEEDEEDEEEDEEEIKKEKCEFSEDVDRFIWTVGQDYGLDDLVVRRALAKYLEVDVSDILERYNELKLKNDGTAGEASDLTSKTITTAFQDFADRRHCRRCMIFDCHMHEKYEPESRSSEDKSSLFEDEDRQPCSEHCYLKVRSVTEAD
notes: Expressed as a yeast two-hybrid vector fusion (pGBT9 / pGAD424); the fusion domain is not included; also called delta-Bcl; truncated FIS1 having the C-terminal 369 amino acids containing the N, CXC and SET domains deleted
For B3, the binding result in data set [2] and in data set [3] was “binds” each time.
